These results are taken from publication PMC9307593.

The target in one assay is PARP1-Flag. Description: proximity ligation; MiaPaCa-2 cells transfected with PARP1-Flag; mouse anti-Flag and rabbit anti-NUPR1 antibodies; untreated or 24 h with ZZW-115 1.5 uM, 5-FU 10 uM, olaparib 25 uM or 5-FU + olaparib; foci counted with ImageJ.

B1: recombinant wild-type NUPR1 (natural protein)
chain: MATFPPATSAPQQPPGPEDEDSSLDESDLYSLAHSYLGGGGRKGRTKREAAANTNRPSPGGHERKLVTKLQNSERKKRGARR
For B1, the inhibition of PARP1 enzymatic activity in an acellular PARP1 activity assay with 2 and 4 µM rNUPR1 (26.5% at 2 µM, 48.4% at 4 µM) in the assay with recombinant PARP1 turned out to be 48.4%.

B2: NUPR1 (detected with the anti-NUPR1 antibody in MiaPaCa-2 cells) (natural protein)
chain: B1 chain
Regarding B2, in the assay with PARP1-Flag, the PLA foci/cell (cells treated with 5-FU) was 94.7 foci/cell, the PLA foci/cell (cells treated with ZZW-115) was found to be 12.5 foci/cell and the PLA foci/cell (control condition) is 59.5 foci/cell.
